Laboratory results: patent publication US20170165338A1

Molecular target: HLA-A*24 (human)
Assay: UV-exchange b2m ELISA

Row | Binder | peptide exchange yield
1 | VYRDETGELF | 50 to 75%
2 | IFLDYEAGTLSF | > 75%
3 | KYTSWYVAL | > 75%
4 | KYMVYPQTF | > 75%
5 | LYHDIFSRL | > 75%
6 | QYLQDAYSF | > 75%
7 | TYIKPISKL | 50 to 75%
8 | AYLHSHALI | > 75%
9 | EYINQGDLHEF | 50 to 75%
10 | VYGFQWRHF | > 75%
11 | RYISDQLFTNF | > 75%
12 | TYIESASEL | 50 to 75%
13 | RYPDNLKHLYL | > 75%
14 | KFVDSTFYL | > 75%
15 | TYGDAGLTYTF | 50 to 75%
16 | RYLNKAFHI | 50 to 75%
17 | RYPDNLKHL | 20 to 49%
18 | VYVSDIQEL | 50 to 75%
19 | KYPVEWAKF | > 75%
20 | HYSQELSLLYL | > 75%
21 | LYNKGFIYL | > 75%
22 | VYTLDIPVL | > 75%
23 | IYLVSIPEL | > 75%
24 | VFTRVSSFL | 50 to 75%
25 | DYLKGLASF | > 75%
26 | KFSSFSLFF | 50 to 75%
27 | DYTTWTALL | > 75%

Row | Binder | peptide exchange yield
28 | YYVESGKLF | > 75%
29 | NYINRILKL | > 75%
30 | KYQDILETI | > 75%
31 | AYTLIAPNI | 50 to 75%
32 | VYEDQVGKF | 20 to 49%
33 | LFIPSSKLLFL | 50 to 75%
34 | IYSWILDHF | > 75%
35 | VYVGGGQIIHL | 50 to 75%
36 | YYEVHKELF | > 75%
37 | EYNQWFTKL | 50 to 75%
38 | TYSVSFPMF | > 75%
39 | LYIDRPLPYL | 50 to 75%
40 | EYSLFPGQVVI | 50 to 75%
41 | RYAEEVGIF | 50 to 75%
42 | YYGPSLFLL | 50 to 75%
43 | IYATEAHVF | 50 to 75%
44 | VYWDSAGAAHF | > 75%
45 | TYELRYFQI | > 75%
46 | AYVVFVSTL | 20 to 49%
47 | TYKDEGNDYF | 50 to 75%
48 | YYKSTSSAF | 50 to 75%
49 | TFSVSSHLF | 50 to 75%
50 | QYLGQIQHI | 50 to 75%
51 | YFIDSTNLKTHF | 50 to 75%
52 | NYYEVHKELF | 50 to 75%
53 | VYQGHTALL | > 75%
54 | PYRLIFEKF | 20 to 49%
